Consider 116 sequences from the supplement of paper PMC10724198.

± gives the standard deviation of the averaged measurements.
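Further: PSI is a weighted mean of sequencing reads over stability bins, variants kept only with over 10 reads, mCherry proximal and sfGFP distal, peptide attached via GGGS linker.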

For the series, the system named is Saccharomyces cerevisiae. Put plainly: protein stability index of tFT-peptide fusion (C-terminal peptide) (PSI (0-1 scale)); higher = more stable (slower turnover). Conditions: genetic background: wild type; temperature: 30 C. On the procedure:
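Multiplexed protein stability (MPS) profiling in S. cerevisiae. Random 12-aa peptides (tFT-X12 library) are fused to the C-terminus of a sfGFP-mCherry tandem fluorescent timer, after mCherry and a GGGS linker. Cells are FACS-sorted into 8 mCherry/sfGFP bins and deep-sequenced. The protein stability index (PSI) is the read-weighted bin average, scaled from 0 (unstable) to 1 (stable). Only peptides with >10 reads are reported; cells were grown at 30 °C in SC-His with glucose.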
With GGGEKVMVVGHG, the protein stability index came to 0.709 ± 0.013.

In the case of GGGERTAGVGQT, the protein stability index is 0.733 ± 0.05.

Regarding GGGGARRLAVGQ, the protein stability index came out at 0.678 ± 0.015.

As to GGGGETGRERKD, the protein stability index is 0.655 ± 0.0061.

As for GGGGGGGAGGSV, the protein stability index turned out to be 0.673 ± 0.0081.

GGGGGGSAVEGG: the protein stability index worked out at 0.674 ± 0.066.

Turning to GGGGGGVECRVG, the protein stability index was 0.671 ± 0.086.

Take GGGGGGWSGACL: the protein stability index was 0.716 ± 0.08.

GGGGGVGVVRVG returned a protein stability index of 0.66 ± 0.032.

For GGGGIREERVRE, the protein stability index was found to be 0.766 ± 0.19.

In the case of GGGGPVWREPGT, the protein stability index came out at 0.761 ± 0.01.

The sequence GGGGQVWSCRLC displayed a protein stability index of 0.678 ± 0.077.

The sequence GGGGSGGAGGGG came in with a protein stability index of 0.641 ± 0.0089.

GGGGVVAGVCGG displayed a protein stability index of 0.667 ± 0.098.

GGGGVVGVVRVG displayed a protein stability index of 0.658 ± 0.044.

GGGGVVVVQGAG had a protein stability index of 0.725 ± 0.058.

In the case of GGGLGGGWGVWG, the protein stability index is 0.657 ± 0.025.

The sequence GGGLGGREPGGS displayed a protein stability index of 0.742 ± 0.15.

With GGGLGWVWVKLG, the protein stability index turned out to be 0.735 ± 0.073.

For GGGNRMRENGRE, the protein stability index turned out to be 0.667 ± 0.026.

Turning to GGGPAVEGLVGR, the protein stability index was 0.66 ± 0.045.

With GGGPPARRRRGA, the protein stability index is 0.652 ± 0.023.

For GGGRGGGFSGGV, the protein stability index was determined as 0.655 ± 0.014.

GGGRGRAGENTR yielded a protein stability index of 0.681 ± 0.049.

Consider GGGTVGCVVALA, for which the protein stability index was determined as 0.64 ± 0.017.

Regarding GGGVHRAVRPGN, the protein stability index was 0.653 ± 0.03.

As to GGGVLTWLGENC, the protein stability index is 0.702 ± 0.0082.

GGGWDAVGVGGP displayed a protein stability index of 0.7505 ± 0.0022.

With GGGWDVRGGCVG, the protein stability index was found to be 0.724 ± 0.0089.

GGIGVGGGHMLL had a protein stability index of 0.656 ± 0.024.

On to GGLAWSMSGCVG, for which the protein stability index came to 0.691 ± 0.076.

GGLGGAGAGVVC returned a protein stability index of 0.694 ± 0.11.

GGLLLPCGAFGG came in with a protein stability index of 0.673 ± 0.06.

In the case of GGLVVGCGGMWV, the protein stability index was determined as 0.609 ± 0.0075.

On to GGMEGRVACSAQ, for which the protein stability index stood at 0.74 ± 0.057.

GGPGVKRPAMDP: the protein stability index worked out at 0.688 ± 0.0071.

The sequence GGPNKRTGVWGR displayed a protein stability index of 0.657 ± 0.0069.

Take GGRGAGSDVGSL: the protein stability index stood at 0.677 ± 0.04.

GGRGGAVEERGG: the protein stability index was found to be 0.67 ± 0.0078.

In turn, GGRGWGGEMGGR showed a protein stability index of 0.7156 ± 0.0052.

On to GGRGYRIKRKSV, for which the protein stability index stood at 0.806 ± 0.12.

In turn, GGRHGSSRTGGY gave a protein stability index of 0.696 ± 0.018.

Regarding GGRKKEDEEEEA, the protein stability index was found to be 0.651 ± 0.078.

As to GGRPDQARPSRH, the protein stability index worked out at 0.741 ± 0.043.

For the sequence GGRRGCFARWAR, the protein stability index was 0.697 ± 0.046.

For the sequence GGRRTLFCRFSY, the protein stability index amounted to 0.702 ± 0.017.

GGRVCGGRVEGQ returned a protein stability index of 0.684 ± 0.007.

Turning to GGRVFWGGSRSV, the protein stability index is 0.651 ± 0.033.

Sequence GGRWWGRGVFGG yielded a protein stability index of 0.652 ± 0.028.

Regarding GGSCGFGQGAGG, the protein stability index is 0.685 ± 0.025.

On to GGSCTRNLLRYW, for which the protein stability index is 0.727 ± 0.011.

GGSFVLGAALGV gave a protein stability index of 0.668 ± 0.039.

GGSGGRDGLCVG: the protein stability index was determined as 0.738 ± 0.049.

GGSLVRGAGVRS registered a protein stability index of 0.686 ± 0.031.

GGSWGGGGVFVR showed a protein stability index of 0.637 ± 0.083.

As for GGTAYFSNRGWA, the protein stability index is 0.595 ± 0.036.

Sequence GGTGGRRGVGHV returned a protein stability index of 0.655 ± 0.022.

Turning to GGVEGGGCVGGG, the protein stability index came to 0.581 ± 0.014.

With GGVGEFGEGALA, the protein stability index was found to be 0.689 ± 0.044.

Sequence GGVGGFGGAGLG registered a protein stability index of 0.65 ± 0.023.

In turn, GGVGGLGTLCGG came in with a protein stability index of 0.661 ± 0.051.

For GGVGWGMVEGWR, the protein stability index worked out at 0.685 ± 0.057.

As for GGVGWWWVRGMG, the protein stability index stood at 0.741 ± 0.029.

GGVKGTRFLLRG had a protein stability index of 0.622 ± 0.051.

GGVKVRGGMGPE came in with a protein stability index of 0.684 ± 0.019.

As to GGVRTLVSRHLP, the protein stability index came to 0.7121 ± 0.0043.

Sequence GGVSRSRNTRWN yielded a protein stability index of 0.677 ± 0.026.

Turning to GGVVGVMWGGVR, the protein stability index amounted to 0.624 ± 0.029.

Sequence GGWARGRQGCGG showed a protein stability index of 0.782 ± 0.011.

For the sequence GGWCGGSGRGAN, the protein stability index worked out at 0.63 ± 0.04.

Turning to GGWGGEVVLWQA, the protein stability index was 0.678 ± 0.073.

With GGWGSRGRVGDI, the protein stability index came to 0.744 ± 0.045.

With GGWGTGTSGQGR, the protein stability index is 0.715 ± 0.027.

GGWRGRAGENTR registered a protein stability index of 0.698 ± 0.036.

Turning to GGWWGGGGAWSG, the protein stability index amounted to 0.689 ± 0.053.

The sequence GHNTPRRVMSRC had a protein stability index of 0.689 ± 0.037.

In turn, GHVEGPGDAESS displayed a protein stability index of 0.701 ± 0.071.

GHVGFSKVSGKG: the protein stability index was determined as 0.664 ± 0.026.

The sequence GICLLRLDTFNI returned a protein stability index of 0.667 ± 0.1.

In turn, GIFSGTDRNLVC displayed a protein stability index of 0.7075 ± 0.0069.

GIGGSGLVSVVD had a protein stability index of 0.716 ± 0.039.

Sequence GIGLVIEDKLLL displayed a protein stability index of 0.683 ± 0.042.

GIGVRLGFWCRG had a protein stability index of 0.75 ± 0.05.

As for GILVDGRGRGCR, the protein stability index was found to be 0.735 ± 0.039.

In turn, GIMFVSEPVLSS showed a protein stability index of 0.664 ± 0.0025.

With GIPPFFTLCRLS, the protein stability index was determined as 0.57 ± 0.034.

Turning to GIRHSNLGQALE, the protein stability index was found to be 0.686 ± 0.11.

In the case of GITAWMAHPRSV, the protein stability index is 0.706 ± 0.012.

With GIVGCDFLLFYF, the protein stability index stood at 0.698 ± 0.018.

Take GIVGLFSALSLL: the protein stability index was 0.706 ± 0.1.

GIWVMVSVCSIA had a protein stability index of 0.537 ± 0.082.

Turning to GIWVWRGARSVG, the protein stability index worked out at 0.745 ± 0.054.

Consider GIYCSFSCKPCP, for which the protein stability index is 0.6699 ± 0.0042.

Turning to GKAKGRESGDRQ, the protein stability index is 0.678 ± 0.039.

On to GKKKKKERKHGA, for which the protein stability index was found to be 0.7351 ± 0.0055.

For the sequence GKKKRKTKGKNR, the protein stability index came out at 0.663 ± 0.035.

The sequence GKKKVKEWKKQM gave a protein stability index of 0.604 ± 0.025.

Take GKKRFENKKEKY: the protein stability index is 0.762 ± 0.12.

GKMQIRRFISRS returned a protein stability index of 0.67 ± 0.0088.

GKPSEMSMREDS had a protein stability index of 0.704 ± 0.019.

In the case of GKRHSYSIISSV, the protein stability index worked out at 0.668 ± 0.061.

The sequence GKRLKKTRTKKS showed a protein stability index of 0.704 ± 0.059.

Consider GKRLRFNRRTRA, for which the protein stability index came to 0.662 ± 0.11.

In turn, GKVTRGTRRGGK returned a protein stability index of 0.66901 ± 0.0003.

Sequence GLADPPNSRPAG came in with a protein stability index of 0.673 ± 0.05.

Sequence GLASFVMQVAPF registered a protein stability index of 0.705 ± 0.008.

Take GLDEAYVSRNIN: the protein stability index was 0.647 ± 0.011.

In turn, GLDRCFTSFYSI showed a protein stability index of 0.702 ± 0.059.

Consider GLFSTRLFCTFL, for which the protein stability index stood at 0.635 ± 0.026.

In turn, GLGEGLVCFLLG registered a protein stability index of 0.73 ± 0.056.

GLGGRGRRASEW had a protein stability index of 0.664 ± 0.071.

GLGKFSALSLVV returned a protein stability index of 0.658 ± 0.044.

Turning to GLGLGLSGGAML, the protein stability index came to 0.665 ± 0.069.

In turn, GLGMIIQNIIHS showed a protein stability index of 0.642 ± 0.026.

Take GLGPMPRGTSTI: the protein stability index was determined as 0.692 ± 0.1.

As for GLGRWGCLEGLG, the protein stability index was found to be 0.716 ± 0.071.
